Measurements taken from article PMC6118392, “VapC proteins from Mycobacterium tuberculosis share ribonuclease sequence specificity but differ in regulation and toxicity” (PLoS ONE, 2018).

T1: VapB1;VapC1 (UniProt P0CW29+P9WFC1)
T1 sequence 1: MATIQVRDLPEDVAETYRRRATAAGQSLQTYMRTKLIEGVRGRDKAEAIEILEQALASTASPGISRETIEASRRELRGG
T1 sequence 2: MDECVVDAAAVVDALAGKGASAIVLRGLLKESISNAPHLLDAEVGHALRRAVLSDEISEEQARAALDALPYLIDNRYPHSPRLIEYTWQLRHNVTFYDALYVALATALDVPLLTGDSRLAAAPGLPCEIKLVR

T2: VapB29;VapC29 (UniProt P9WJ37+P9WF79)
T2 sequence 1: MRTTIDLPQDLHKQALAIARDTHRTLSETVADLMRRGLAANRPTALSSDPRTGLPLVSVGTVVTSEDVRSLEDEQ
T2 sequence 2: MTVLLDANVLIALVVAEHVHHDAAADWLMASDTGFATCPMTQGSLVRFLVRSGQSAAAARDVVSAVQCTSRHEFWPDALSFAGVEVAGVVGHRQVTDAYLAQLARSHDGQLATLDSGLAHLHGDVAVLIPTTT

T3: VapB29;VapC29 (Mycobacterium tuberculosis …, UniProt P9WJ37;P9WF79 1-75;1-133, |)
T3 sequence 1: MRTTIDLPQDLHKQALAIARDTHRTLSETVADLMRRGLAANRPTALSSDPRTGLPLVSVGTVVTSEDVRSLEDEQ
T3 sequence 2: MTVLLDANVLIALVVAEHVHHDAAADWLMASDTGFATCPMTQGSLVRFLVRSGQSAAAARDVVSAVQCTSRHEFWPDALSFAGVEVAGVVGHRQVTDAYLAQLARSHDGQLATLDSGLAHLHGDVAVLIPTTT


Assays:
Assay in all cases: EMSA
[1] = target: T1, VapB1;VapC1
[2] = target: T2, VapB29;VapC29
[3] = target: T3, VapB29;VapC29; details: protein: recombinant;recombinant; tags: ;C-terminal His; label: 3' DIG-ddUTP; blunt

| Molecule | binding [1] | binding [2] | binding result [3] |
| --- | --- | --- | --- |
| AGCGGAGTTCACCGGCTAAGAATGCCGGCTTATCCACCGGGCGTTTCGGCGGCATCGATGGCCTTCTCTAACCGGTCGAGCACCGCGCGCAGATCGGCCAG (double strand) [vapBC1 promoter 101 bp] | no binding | – | – |
| GTGGATAAGCCGGCATTCTTAGCCGGTGAACTCCGCTATGGCTACCATTCAAGTTCGGGATTTGCCCGAAGATGTCGCCGAAACCTATCGACGGCGCGCCACCGCAGCGGGGCAGTCGCTGCAGACGTATATGCGCACCAAGCTCATCGA (double strand) [vapBC1 promoter 150 bp] | no binding | no binding | – |
| CATGGGAATACGATACCAATGGCTTCCCACTCAGGTGCGGAAGTCGACTCACCGCCGTTACCACGACCCCGACGACCACACCGTCAGCTGCGGCGCGGCGTGGCGACTATTGGTCGCTAGTGTCGTGCTCCCGATTCGGGTCCTTTGTATCTGATGACGT (double strand) [vapBC27 promoter 160 bp] | – | no binding | – |
| Oligo 5 (50 bp vapBC29 promoter, control) (dsDNA) DNA 1: GGTGAGCGTCGGCGCGCGCATCACGATGCAGCGATGTTAGGATGAGGCGG DNA 2: CCGCCTCATCCTAACATCGCTGCATCGTGATGCGCGCGCCGACGCTCACC | – | – | binds |
